Drawing on article PMC4508897, this text covers percent of NPs for one substance.

The experiment deals with human wt Ecad-GFP (wild-type E-cadherin fused to EGFP) (human) (UniProt P12830). Kind of experiment: TEM of gold nanoparticle.

“human wt Ecad-GFP (wild-type E-cadherin fused to EGFP) (from UniProt P12830 23-882) (natural protein)” showed a percent of NPs at <15 nm from their nearest neighbour of 20.6%.
